Each block holds one binder with its values, some of them ahead of it.
Columns and labels:
Test in all cases: ITC
[1] = molecular target: T1, CaM C-lobe fragment (residues 80–149) (UniProt P0DP23 80-149)
[2] = molecular target: T1, CaM C-lobe fragment (residues 80–149); remark: listed apart in the source
[3] = molecular target: Calmodulin (CaM), full-length (UniProt P0DP23 1-149)
[4] = molecular target: T2, CaM N-lobe fragment (residues 1–80) (UniProt P0DP23 1-80)
[5] = molecular target: T2, CaM N-lobe fragment (residues 1–80); remark: listed apart in the source

Ka [1]: 18000 M⁻¹
Kd [2]: 54 ± 5 µM
B1: CaM2^L1132E peptide (CNGB1 residues 1120–1147, L1132E) (peptide, UniProt Q14028 1120-1147, looked up)
peptide: GGKGAKGGKLAHERARLKELAALEAAAK

Ka [1]: 12000 M⁻¹
Kd [2]: 84 ± 10 µM
B2: CaM2^L1136E peptide (CNGB1 residues 1120–1147, L1136E) (peptide, UniProt Q14028 1120-1147, looked up)
peptide: GGKGAKGGKLAHLRAREKELAALEAAAK

Kd [3]: 25 ± 4 µM
Ka [1]: 9.8e+06 M⁻¹
Ka [4]: < 18000 M⁻¹
Kd [2]: 0.1 ± 0.02 µM
B3: CaM2 peptide, CNGB1 residues 1120–1147 (peptide, UniProt Q14028 1120-1147, looked up)
peptide: GGKGAKGGKLAHLRARLKELAALEAAAK

The next lines start with the binder.

B4: CaM1^F575E peptide (CNGB1 residues 565–589, F575E) (peptide, UniProt Q14028 565-589, looked up)
peptide: NDRLQELVKLEKERTEKVKEKLIDP
Ka [4]: < 20000 M⁻¹
Kd [5]: > 50 µM

B5: CaM1 peptide, CNGB1 residues 565–589 (peptide, UniProt Q14028 565-589, looked up)
peptide: NDRLQELVKLFKERTEKVKEKLIDP
Ka [1]: 34000 M⁻¹
Ka [4]: 180000 M⁻¹
Kd [2]: 29 ± 5 µM
Kd [5]: 5.7 ± 1 µM
